Measurements taken from US20200223903A1 (NEOMATRIX THERAPEUTICS, published 2020).

Experiments:
[1] = biological target: T1, epidermal growth factor (UniProt P01133 971-1023); experiment: SPR (Biacore T200), real time interaction of peptide with growth factor
T1 construct: also called EGF
Method: (§1) To study the binding activities of these peptides, real time interactions of P12, P46, and cNP8 with growth factors were determined by plasmon surface resonance (Biacore T200).

[2] = biological target: T2, insulin-like growth factor-1 (UniProt P05019 49-118); experiment: as above
T2 construct: also called IGF-1
T2 sequence (P05019 49-118 limits assumed): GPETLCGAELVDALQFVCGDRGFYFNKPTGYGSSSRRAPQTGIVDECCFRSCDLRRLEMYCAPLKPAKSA
Method: as §1

T1 sequence (P01133 971-1023 limits assumed): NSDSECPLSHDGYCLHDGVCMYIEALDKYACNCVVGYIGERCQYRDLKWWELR

B1: P46 (HISKYILRWRPKNSV), fibronectin-derived peptide (peptide)
peptide: HISKYILRWRPKNSV
notes: Found as an elastase digestion product of FNIII1-C and then synthesized; Linear
Question: Does B1 bind [1]?
Answer: Result: no binding

Question: Does B1 bind [2]?
Answer: Result: no binding

B2: cNP8, cyclic HIGKYGLRWRPKGSV, elastase-resistant engineered peptide derived from P46 (peptide)
peptide: HIGKYGLRWRPKGSV
modifications: cyclic: N terminus amino acid bound to the C terminus amino acid
notes: also called cyclic NP8
Question: Which results are given for B2?
Answer: binding result [1]: no binding; binding result [2]: no binding

B3: P12 (PSHISKYILRWRPK), 14-residue peptide of fibronectin's first type III repeat (peptide)
peptide: PSHISKYILRWRPK
notes: Linear P12 as named in the SPR paragraph
Question: Does B3 bind [1]?
Answer: Result: no binding

Question: Does B3 bind [2]?
Answer: Result: no binding
